{"source": "patent US20260070986A1", "about": "(AFFIMED, published 2026)", "binders": {"B1": {"name": "scFv-IgAb_268 (CD123-1xCD16a1) (bispecific antibody)", "heavy": "QVQLQQSGAEVKKPGASVKVSCKASGYTFTDYYMKWVKQSHGKSLEWMGDIIPSNGATFYNQKFKGKATLTVDRSTSTAYMELSSLRSEDTAVYYCARSHLLRASWFAYWGQGTLVTVSSASTKGPSVFPLAPSSKSTSGGTAALGCLVKDYFPEPVTVSWNSGALTSGVHTFPAVLQSSGLYSLSSVVTVPSSSLGTQTYICNVNHKPSNTKVDKKVEPKSCDKTHTCPPCPAPEFEGGPSVFLFPPKPKDTLMISRTPEVTCVVVAVSHEDPEVKFNWYVDGVEVHNAKTKPREEQYNSTYRVVSVLTVLHQDWLNGKEYKCKVSNKALPAPIEKTISKAKGQPREPQVYTLPPSREEMTKNQVSLTCLVKGFYPSDIAVEWESNGQPENNYKTTPPVLDSDGSFFLYSKLTVDKSRWQQGNVFSCSVMHEALHNHYTQKSLSLSPGGGGGSGGGGSGGGGSGGGGSGGGGSGGGGSSYELTQPLSVSVALGQTARITCGGNNIGSKSVHWYQQKPGQAPVLVIYQDKKRPSGIPERFSGSNSGNTATLTISRAQAGDEADYYCQVWDDYIVLFGCGTKLTVLGGSGGSGGSGGSGGSGGSGGSQVQLVQSGAEVKKPGASVKVSCKASGYTFTNYYMQWVRQAPGQCLEWMGIINPSGGVTSYAQKFQGRVTMTRDTSTSTVYMELSSLRSEDTAVYYCARGSAYYYDFADYWGQGTLVTVSS", "light": "not shown", "notes": "also called AFM28; CD123xCD16A scFv-IgAb_268"}}, "key": {"[1]": {"target": "T1, recombinant human FcγRIIC (CD32C), biotinylated (human, UniProt P31995 43-223, limits assumed, site-directed biotinylation at AviTag)", "T1 construct": "also called human CD32C", "T1 sequence (looked up)": "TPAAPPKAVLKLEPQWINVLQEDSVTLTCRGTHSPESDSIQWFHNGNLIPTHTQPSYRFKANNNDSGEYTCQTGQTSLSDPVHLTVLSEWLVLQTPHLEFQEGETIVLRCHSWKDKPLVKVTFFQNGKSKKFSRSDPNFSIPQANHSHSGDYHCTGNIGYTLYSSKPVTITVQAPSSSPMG", "assay": "SPR (Biacore), 37 °C, biotin-captured human CD32C as ligand, steady-state plot; left-hand column, no heading on the sheet", "experimental": "(§1) FIG. 21: SPR interaction analysis of antibody binding to CD32. […] Affinity parameters were evaluated for interaction with receptors using a Steady State Binding model."}, "[2]": {"target": "T2, recombinant human FcγRIIB (CD32B), biotinylated (human, UniProt P31994 43-217, limits assumed, site-directed biotinylation at AviTag)", "T2 construct": "also called human CD32B", "T2 sequence (looked up)": "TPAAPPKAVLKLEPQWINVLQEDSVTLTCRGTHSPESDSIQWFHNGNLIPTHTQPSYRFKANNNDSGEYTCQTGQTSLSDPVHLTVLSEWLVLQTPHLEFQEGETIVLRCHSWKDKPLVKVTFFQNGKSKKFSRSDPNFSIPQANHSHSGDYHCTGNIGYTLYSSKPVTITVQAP", "assay": "SPR (Biacore), 37 °C, biotin-captured human CD32B as ligand, steady-state plot; left-hand column, no heading on the sheet", "experimental": "as §1"}, "[3]": {"target": "T3, recombinant human neonatal Fc receptor (FcRn), biotinylated (human, UniProt P55899 24-297, site-directed biotinylation at AviTag)", "T3 construct": "also called human FcRn", "T3 sequence (P55899 24-297 limits assumed, form in doubt)": "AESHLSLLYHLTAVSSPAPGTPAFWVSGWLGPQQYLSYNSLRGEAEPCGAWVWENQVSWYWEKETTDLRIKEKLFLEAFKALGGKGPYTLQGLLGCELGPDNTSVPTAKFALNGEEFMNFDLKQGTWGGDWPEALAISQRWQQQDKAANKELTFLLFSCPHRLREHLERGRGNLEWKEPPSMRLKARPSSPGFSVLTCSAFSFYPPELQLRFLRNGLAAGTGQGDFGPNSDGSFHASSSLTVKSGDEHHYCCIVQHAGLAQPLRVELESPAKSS", "assay": "SPR (Biacore), 37 °C, pH 6.0, biotin-captured human FcRn as ligand, steady-state affinity fit", "experimental": "Affinity parameters were evaluated for interaction with human FcRn, cynomolgus FcRn or murine FcRn using a Steady State Binding model (D-F)."}}, "data": [{"binder": "B1", "values": [{"measurement": "binding result", "setting": "[1]", "value": "no binding"}, {"measurement": "binding result", "setting": "[2]", "value": "no binding"}, {"measurement": "Kd", "setting": "[3]", "value": 364, "unit": "nM"}]}]}
